Reference: patent US20190016771A1 (Hoffmann-La Roche, published 2019)

Experiments:
[1] = target: T1, human fibroblast activation protein (FAP) on the cell surface (human, UniProt Q12884 1-760); assay: flow cytometry on 3T3-huFAP clone 39 cells, detection with PE-labelled anti-human CD137L (4-1BBL) mouse IgG2b, MFI baseline corrected
T1 construct: also called huFAP; NIH/3T3-huFAP clone 39 cells
T1 sequence: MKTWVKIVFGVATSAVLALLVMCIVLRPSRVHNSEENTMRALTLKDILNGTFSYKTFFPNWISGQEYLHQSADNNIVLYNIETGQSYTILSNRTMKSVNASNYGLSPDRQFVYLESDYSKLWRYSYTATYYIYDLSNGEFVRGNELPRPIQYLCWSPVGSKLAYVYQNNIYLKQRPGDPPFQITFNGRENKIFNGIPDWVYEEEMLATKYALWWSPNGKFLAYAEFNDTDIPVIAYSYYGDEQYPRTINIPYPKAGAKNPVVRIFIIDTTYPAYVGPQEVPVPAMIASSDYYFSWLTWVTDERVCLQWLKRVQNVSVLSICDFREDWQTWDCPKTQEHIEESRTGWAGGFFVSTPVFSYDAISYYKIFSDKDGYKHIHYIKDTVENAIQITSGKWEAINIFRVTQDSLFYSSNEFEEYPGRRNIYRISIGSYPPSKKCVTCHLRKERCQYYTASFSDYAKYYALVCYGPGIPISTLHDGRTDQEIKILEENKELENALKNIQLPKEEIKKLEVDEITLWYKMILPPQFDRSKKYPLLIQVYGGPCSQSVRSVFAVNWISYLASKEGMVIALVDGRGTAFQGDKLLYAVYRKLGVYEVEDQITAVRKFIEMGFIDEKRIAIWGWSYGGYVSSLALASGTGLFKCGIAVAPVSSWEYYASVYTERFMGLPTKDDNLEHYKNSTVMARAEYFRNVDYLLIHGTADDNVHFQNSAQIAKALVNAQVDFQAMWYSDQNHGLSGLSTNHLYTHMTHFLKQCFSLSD
Protocol: (§1) For binding assays on FAP expressing cells, the NIH/3T3-huFAP clone 39 cell line was used. To generate this cell line, NIH/3T3 cells were transfected with human FAP (NIH/3T3-huFAP clone 39). The cells were generated by transfection of mouse embryonic fibroblast NIH/3T3 cells (ATCC CRL-1658) with the expression pETR4921 plasmid encoding human FAP under a CMV promoter. Cells were maintained in the presence of 1.5 μg/mL puromycin (InvivoGen, Cat.-No.: ant-pr-5). 0.1×10⁶ of FAP expressing tumor cells were added to each well of a round-bottom suspension cell 96-well plates (Greiner bio-one, cellstar, Cat.-No. 650185). Cells were washed once with 200 μL/well 4° C. cold FACS buffer and resuspended in 50 μL/well of 4° C. cold FACS buffer containing different concentrations of titrated FAP-targeted or DP47-targeted CMP-trimeric 4-1BB ligand-containing antigen binding molecule. Resuspended cells were incubated for 2 hour at 4° C. […] Cells were washed twice with 200 μL/well cold FACS buffer and resuspended in 100 μL/well FACS buffer containing 0.2 μg/mL DAPI (Santa Cruz Biotec, Cat. No. Sc-3598) and acquired the same day using a 5-laser LSR-Fortessa (BD Bioscience with DIVA software).

[2] = target: T1, human fibroblast activation protein …; assay: flow cytometry on 3T3-huFAP clone 39 cells, detection with FITC-labelled anti-huIgG kappa mouse IgG (clone G18-145), MFI baseline corrected
Protocol: as §1

[3] = target: T2, human 4-1BB (CD137) on the cell surface (human, UniProt Q07011 24-255); assay: flow cytometry on activated human CD8+ T cells (PBMC), detection with PE-labelled anti-human IgG F(ab')2-specific goat F(ab')2, median fluorescence, baseline corrected
T2 construct: whole, on cells; also called HeLa-huCD137-NF-kB-luciferase reporter cells
Protocol: Plates were centrifuged 4 minutes with 400×g and at 4° C. and supernatant was discarded. If cells were fixed before acquisition by flow cytometry they were washed once with 200 μL/well DPBS and then stained for 30 min at 4° C. with […] DPBS containing 1:1000 diluted LIVE/DEAD Fixable Aqua Dead Cell Stain (Life technologies, Molecular Probes, Cat-No.: L34957). If cells were acquired the same day and DAPI was used to discriminate dead cells this staining step was skipped. Afterwards cells were washed once with 200 μL cold FACS buffer (DPBS supplied with 2% (v/v) FBS, 5 mM EDTA pH8 (Amresco, Cat. No. E177) and 7.5 mM sodium azide (Sigma-Aldrich S2002)). Next, 50 μL/well of 4° C. cold FACS buffer containing FAP-targeted CMP trimeric 4-1BB ligand-containing antigen binding molecule, DP47-targeted CMP trimeric 4-1BB ligand-containing antigen binding molecule or not-specific binding huIgG1 P329G LALA control antibody were added and cells were incubated for 120 minutes at 4° C. Cells were washed four times with 200 μL/well 4° C. FACS buffer. […]

T2 sequence (Q07011 24-255): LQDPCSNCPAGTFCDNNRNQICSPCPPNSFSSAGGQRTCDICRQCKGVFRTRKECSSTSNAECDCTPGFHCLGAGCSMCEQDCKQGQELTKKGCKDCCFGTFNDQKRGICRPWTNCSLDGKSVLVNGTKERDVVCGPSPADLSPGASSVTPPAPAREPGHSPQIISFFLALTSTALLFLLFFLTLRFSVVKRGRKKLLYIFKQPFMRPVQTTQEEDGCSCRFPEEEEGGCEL

- EC50 (read off the curve) [1]: ~0.4 nM
- EC50 (read off the curve) [2]: ~0.7 nM
- EC50 (read off the curve) [3]: ~0.6 nM
B1: FAP(28H1)-targeted hu CMP (CMPtd) trimeric human 4-1BBL(71-254)-containing antigen binding molecule (other)
chain: EVQLLESGGGLVQPGGSLRLSCAASGFTFSSHAMSWVRQAPGKGLEWVSAIWASGEQYYADSVKGRFTISRDNSKNTLYLQMNSLRAEDTAVYYCAKGWLGNFDYWGQGTLVTVSSASTKGPSVFPLAPSSKSTSGGTAALGCLVKDYFPEPVTVSWNSGALTSGVHTFPAVLQSSGLYSLSSVVTVPSSSLGTQTYICNVNHKPSNTKVDKKVEPKSCDGGGGSGGGGSEEDPCACESLVKFQAKVEGLLQALTRKLEAVSKRLAILENTVVSGGGGSGGGGSGGGGSGGGGSREGPELSPDDPAGLLDLRQGMFAQLVAQNVLLIDGPLSWYSDPGLAGVSLTGGLSYKEDTKELVVAKAGVYYVFFQLELRRVVAGEGSGSVSLALHLQPLRSAAGAAALALTVDLPPASSEARNSAFGFQGRLLHLSAGQRLGVHLHTEARARHAWQLTQGATVLGLFRVTPEIPAGLPSPRSE
light: EIVLTQSPGTLSLSPGERATLSCRASQSVSRSYLAWYQQKPGQAPRLLIIGASTRATGIPDRFSGSGSGTDFTLTISRLEPEDFAVYYCQQGQVIPPTFGQGTKVEIKRTVAAPSVFIFPPSDEQLKSGTASVVCLLNNFYPREAKVQWKVDNALQSGNSQESVTEQDSKDSTYSLSSTLTLSKADYEKHKVYACEVTHQGLSSPVTKSFNRGEC
notes: Three fusion chains are covalently linked by disulfides of the huCMP trimerization domain; each pairs with one light chain to form a Fab; also called trimeric FAP-huCMP-4-1BBL
